Kd data for one molecule are collected here from PMC11252414, “Enhancing the performance of porous silicon biosensors: the interplay of nanostructure design and microfluidic integration”.

Holding throughout (details): protein: commercial; label: none; single strand
Data set [1] has as its target T1, lactoferrin (LF) (bovine (milk), UniProt P24627 20-708). The data set can be described thus: RIFTS (porous Si interferometry); plain microchannel, 30 ul/min; Selection buffer: PBS (137 mM NaCl, 10 mM Na2HPO4, 2.7 mM KCl, 2 mM KH2PO4) + 1 mM MgCl2, pH 7.4, room temperature; GI fluid at 37 C.
For data set [2], the target named is T1, lactoferrin (LF). Description: RIFTS (porous Si interferometry); SHM (herringbone) microchannel, 30 ul/min; Selection buffer: PBS (137 mM NaCl, 10 mM Na2HPO4, 2.7 mM KCl, 2 mM KH2PO4) + 1 mM MgCl2, pH 7.4, room temperature; GI fluid at 37 C.
The target of data set [3] is T1, lactoferrin (LF). Description: RIFTS (porous Si interferometry); impeller-integrated microchannel, 30 ul/min; Selection buffer: PBS (137 mM NaCl, 10 mM Na2HPO4, 2.7 mM KCl, 2 mM KH2PO4) + 1 mM MgCl2, pH 7.4, room temperature; GI fluid at 37 C.
In data set [4] the target is T1, lactoferrin (LF). Description: RIFTS (porous Si interferometry); cell setup, selection buffer, Tris-passivated, 1 mM Mg2+; apparent; Selection buffer: PBS (137 mM NaCl, 10 mM Na2HPO4, 2.7 mM KCl, 2 mM KH2PO4) + 1 mM MgCl2, pH 7.4, room temperature; GI fluid at 37 C.
Data set [5] has as its target T1, lactoferrin (LF). The data set can be described thus: RIFTS (porous Si interferometry); PEG-passivated, LF-spiked porcine GI fluid, 37 C; apparent, LOD 600 nM suggests uM; Selection buffer: PBS (137 mM NaCl, 10 mM Na2HPO4, 2.7 mM KCl, 2 mM KH2PO4) + 1 mM MgCl2, pH 7.4, room temperature; GI fluid at 37 C.

T1 sequence (P24627 20-708): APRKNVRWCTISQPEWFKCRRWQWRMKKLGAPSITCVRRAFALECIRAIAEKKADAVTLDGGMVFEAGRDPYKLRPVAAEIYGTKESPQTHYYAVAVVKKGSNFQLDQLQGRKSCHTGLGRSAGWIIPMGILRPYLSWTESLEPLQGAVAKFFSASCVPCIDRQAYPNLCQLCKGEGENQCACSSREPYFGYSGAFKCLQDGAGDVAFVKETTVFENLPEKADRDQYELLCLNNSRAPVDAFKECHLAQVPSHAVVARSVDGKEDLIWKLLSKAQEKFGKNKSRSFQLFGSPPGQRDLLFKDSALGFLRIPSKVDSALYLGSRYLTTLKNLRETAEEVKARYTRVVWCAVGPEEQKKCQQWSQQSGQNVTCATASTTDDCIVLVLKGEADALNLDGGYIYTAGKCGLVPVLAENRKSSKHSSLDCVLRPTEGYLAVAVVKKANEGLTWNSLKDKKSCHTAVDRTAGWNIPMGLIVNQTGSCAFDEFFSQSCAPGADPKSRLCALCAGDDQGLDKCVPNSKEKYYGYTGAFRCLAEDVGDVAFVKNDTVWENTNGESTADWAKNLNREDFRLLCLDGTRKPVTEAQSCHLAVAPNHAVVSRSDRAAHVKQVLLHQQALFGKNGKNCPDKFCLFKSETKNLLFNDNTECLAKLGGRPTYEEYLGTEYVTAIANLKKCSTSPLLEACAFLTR

B1: Lac 9-2 anti-LF aptamer with T10 spacer (ssDNA)
DNA: CAGGCAGGACACCGTAACCGGTGCATCTATGGCTACTAGCTCTTCCTGCCTATTTTTTTTTT
modifications: 3'-amino, coupled via NHS/EDC to carboxylated porous Si
Take B1: the Kd in data set [1] is 2000 ± 1000 nM; in data set [2], 1600 ± 600 nM; in data set [3], 1300 ± 600 nM; in data set [4] it was 2100 ± 900 nM; in data set [5] it was 11.8 ± 1.9 nM.
